These results are taken from publication PMC2914686.

The Km is the concentration of substrate that gives half-maximal velocity.

Substrate in the data set: C[S+](CC[C@H](N)C(=O)[O-])C[C@H]1O[C@@H](n2cnc3c(N)ncnc32)[C@H](O)[C@@H]1O
Nature of the data set: Michaelis-Menten kinetics. In kind it is biochemical, Homo sapiens.

B1: G9a (Homo sapiens) (protein)
chain: NRAIRTEKIICRDVARGYENVPIPCVNGVDGEPCPEDYKYISENCETSTMNIDRNITHLQHCTCVDDCSSSNCLCGQLSIRCWYDKDGRLLQEFNKIEPPLIFECNQACSCWRNCKNRVVQSGIKVRLQLYRTAKMGWGVRALQTIPQGTFICEYVGELISDAEADVREDDSYLFDLDNKDGEVYCIDARYYGNISRFINHLCDPNIIPVRVFMLHQDLRFPRIAFFSSRDIRTGEELGFDYGDRFWDIKSKYFTCQCGSEKCKHSAEAIALEQSRLARLD
B1: the Km came to 31.7 µM.
